# Source: patent US12534533B2, “Anti-chemokine like receptor 1 humanized antibodies and their therapeutic applications” (OSE IMMUNOTHERAPEUTICS, priority 2019, dated 2026)
# T1: Biot-C7 peptide (human ChemR23 peptide, SEQ ID No. 60) (Homo sapiens, UniProt Q99788)
# T1 construct: purchased synpeptide; host or cells: chemical synthesis
# T1 sequence (Q99788 275-307 limits assumed): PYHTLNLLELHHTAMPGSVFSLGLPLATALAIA
# B1: HDLD: humanized 2G1 variant: combination of SEQ ID No. 43 and SEQ ID No. 53 (antibody, V domains shown)
# VH: EVQLVESGGGLVQPGGSLRLSCAASGFTFSSYAMSWVRQAPGKGLELVATINRYGGSTYYAASVKGRFTISRDNSKNTLYLQMNSLRAEDTAVYYCPKLIYYGNEGDSWGQGTLVTVSS
# VL: AIQLTQSPSSLSASVGDRVTITCRASQSVSFLHWYQQKPGKAPKRWIYDATKLTSGVPSRFSGSGSGTDFTLTISSLQPEDFATYYCQQWQSKPPLTFGGGTKVEIK
# B2: HALA: humanized 2G1 germline antibody: combination of SEQ ID No. 41 and SEQ ID No. 50 (antibody, V domains shown)
# VH: EVQLVESGGGLVQPGGSLRLSCAASGFTFSSYGMSWVRQAPGKGLELVATINRYGGSTYYPDSVKGRFTISRDNSKNTLYLQMNSLRAEDTAVYYCPRLIYYGNEGDSWGQGTLVTVSS
# VL: AIQLTQSPSSLSASVGDRVTITCSASSSVSFMHWYQQKPGKAPKRWIYDTTKLTSGVPSRFSGSGSGTDYTLTISSLQPEDFATYYCQQWNSKPPLTFGGGTKVEIK
# B3: HEF-LDT52S: humanized 2G1 variant optimized to reduce immunogenicity: HEF (SEQ ID NO: 91) with LD-T52S (SEQ ID No. 93) (antibody, V domains shown)
# VH: EVQLVESGGGLVQPGGSLRLSCAASGFTFSSYAMSWVRQAPGKGLELVSTISGSGGSTYYAASVKGRFTISRDNSKNTLYLQMNSLRAEDTAVYYCPKLIYYGNEGDSWGQGTLVTVSS
# VL: AIQLTQSPSSLSASVGDRVTITCRASQSVSFLHWYQQKPGKAPKRWIYDASKLTSGVPSRFSGSGSGTDFTLTISSLQPEDFATYYCQQWQSKPPLTFGGGTKVEIK
# How the values were obtained:
# [1] = target: T1, Biot-C7 peptide (human ChemR23 peptide, SEQ ID No. 60); assay: activity ELISA assay, binding of biotinylated C7 peptide; details: compared to wild-type 2G1; FIG. 23, FIG. 33
# From the text: FIG. 23. Binding recognition of C7 peptide by humanized anti-CMKLR1 derived from 2G1. Binding of C7biot in the supernatant of CHO cells transfected with different combinations of heavy and light chains (VHWT+VLWT: combination of SEQ ID No. 37 and SEQ ID No. 49; HCLC: combination of SEQ ID No. 42 and SEQ ID No.52; HDLC: combination of SEQ ID No. 43 and SEQ ID No.52; HCLD: combination of SEQ ID No. 42 and SEQ ID No.53; HDLD: combination of SEQ ID No. 43 and SEQ ID No.53).
# FIG. 24. ED50 of anti-CMKLR1 derived from 2G1 antibody. 2G1 wt: HALA: combination of SEQ ID No. 41 and SEQ ID No. 50; combination of SEQ ID No. 37 and SEQ ID No. 49; HCLC: combination of SEQ ID No. 42 and SEQ ID No.52; HDLC: combination of SEQ ID No. 43 and SEQ ID No.52; HCLD: combination of SEQ ID No. 42 and SEQ ID No.53; HDLD: combination of SEQ ID No. 43 and SEQ ID No.53.
# FIG. 33—Binding of purified antibodies on human ChemR23 peptide by ELISA assay (A), with ED50 concentration (ng/ml) (B). For activity ELISA assay, donkey anti-human IgG, Fc specific (Jackson Immunoresearch; USA; reference 709-005-098) was immobilized on plastic at 1.3 μg/ml in borate buffer (pH9) and purified antibody was added to measure binding in BSA1% buffer, compared to wild-type 2G1.
# For activity ELISA assay, donkey anti-human IgG, Fc specific (Jackson Immunoresearch; USA; reference 709-005-098) was immobilized on plastic at 1.3 μg/ml in borate buffer (pH9) and purified antibody were added to measure binding in BSA1% buffer, compared to wild-type 2G1.
# For activity ELISA assay, donkey anti-human IgG, Fc specific (Jackson Immunoresearch; USA; reference 709-005-098) was immobilized on plastic at 1.3 μg/ml in borate buffer (pH9) and purified antibody was added to measure binding in BSA1% buffer, compared to wild-type 2G1.
# [2] = test system: PMN from healthy volunteers; assay: Percentage of dead PMN (mortality of neutrophils) on coated antibodies; assay type: cell-based, human; details: for mortality of PMN (percentage of dead PMN): coated Ab at 10 μg/mL, 24 h, FIG. 26, FIG. 36
# Procedure: […] Mortality of PMN was analyzed by incubating PMN with specific markers of the mortality and viability and then counted by picture analysis.
# (§1) FIG. 36—Increase of dead PMN neutrophils in vitro with anti-ChemR23 antibodies coated. PMN from healthy volunteers were incubated in culture medium with coated HEF-LDT52S, HEF-LEF and HDLD antibody variants at 10 μg/mL for 24 h and stained either with a dead/viability kit (LIVE/DEAD (Invitrogen)). The percentages of positive cells were obtained by analyzing the pictures with Fiji software. Isotype control was added as control.
# (§2) PMN from healthy volunteers were incubated in culture medium with coated Ab at 10 μg/mL for 24 h or 5 h and stained either with a dead/viability kit (LIVE/DEAD (Invitrogen)) or a specific marker of reactive oxygen species (ROS) respectively. The percentages of positive cells were obtained by analyzing the pictures with ImageJ software.
# as §1, with “PMN” for “FIG. 36—Increase of dead PMN neutrophils in vitro with anti-ChemR23 antibodies coated. PMN”
# [3] = Stability assay (7 days at 4° C. or 37° C.; ELISA and gel filtration); assay type: physicochemical; details: after 7 days at 37° C.; gel filtration; FIG. 34B
# Procedure: FIG. 34—A. Binding of purified antibodies incubated 7 days at 4° C. or 37° C. on human ChemR23 ELISA assay. B. SEC profile by gel filtration chromatography of purified antibodies incubated 7 days at 37° C. Each purified humanized anti-ChemR23 antibody (HALA, HDLD, HD-LDT52S, HEF-LDT52S, HEF-LEF) were incubated for 7 days at 4° C. or 37° C. After 7 days, the binding of purified antibodies was analyzed by ELISA assay and the aggregate formation was analyzed by gel filtration (Superdex 200 10/300GL, GeHealthcare).
# Each purified humanized anti-ChemR23 antibody (HALA, HDLD, HD-LDT52S, HEF-LDT52S, HEF-LEF) were incubated for 7 days at 4° C. or 37° C. After 7 days, the binding of purified antibodies was analyzed by ELISA assay and the aggregate formation was analyzed by gel filtration (Superdex 200 10/300GL, GeHealthcare).
# [4] = test system: ROS production by PMN from healthy volunteers; assay: ROS test in PMN; assay type: cell-based, human; details: coated Ab at 10 μg/mL, after 5 h; FIG. 26C
# Procedure: (§3) Neutrophils were isolated from blood of healthy volunteers and cultured for 24 h (Mortality analysis), or 4 h, 6 h, 11 h (Caspase-3 assay), or 5 h (ROS assay) on coated Iso ctrl (cross), chimeric anti-ChemR23 2G1 (square) or different humanized versions of the 2G1 (diamonds). Mortality of PMN was analyzed by incubating PMN with specific markers of the mortality and viability and then counted by picture analysis.
# as §2
# [5] = test system: Caspase-3 in PMN from healthy volunteers; assay: Caspase-3 expression in PMN by Western Blot; assay type: cell-based, human; details: coated Ab at 10 μg/mL, FIG. 26B
# Procedure: as §3
# PMN from healthy volunteers were incubated in culture medium with coated Ab at 10 μg/mL for different times and collected for Caspase-3 staining analyzed by Western Blot. The intensity of Capase-3 expression was calculated on WB.
# [6] = test system: CCR7 expression at the surface of pro-inflammatory macrophages M1; assay: CCR7 expression on M1 macrophages with coated antibodies; assay type: cell-based, human; details: antibody coated on plate, 48 h, flow cytometry; vs isotype control; FIG. 25, FIG. 35
# Procedure: FIG. 25. Inhibition of CCR7 expression on M1 macrophages cells in vitro with anti-ChemR23 antibodies coated. 2G1 and all humanized 2G1 variants (HALA, HCLC, HCLD, HDLC and HDLD) were immobilized on plate. Isotype control were added as controls. Two isotypes which prevent FcRγ binding, i.e., 2G1-N297A (2G1 wt mutated in N297A to reduce FcγR binding), and 2G4 (wt with isotype IgG4mutated in S228P to stabilise hinge region) were also added. Pro-inflammatory macrophages M1 were added on coated plate for 48 h, and CCR7 expression at the surface of the macrophages was measured by flow cytometry.
# FIG. 35—Inhibition of CCR7 expression on M1 macrophages cells in vitro with anti-ChemR23 antibody coated. The humanized 2G1 variant HEF-LD-T52S was immobilized on plate. Isotype control were added as controls. Pro-inflammatory macrophages M1 were added on coated plate, and CCR7 expression at the surface of the macrophages was measured by flow cytometry.
# MATERIAL AND METHODS. […]
# RESULTS. […] Pro-inflammatory macrophages M1 were added on coated plate for 48 h, and CCR7 expression at the surface of the macrophages was measured by flow cytometry.
# The humanized 2G1 variant HEF-LD-T52S was immobilized on plate. […] Pro-inflammatory macrophages M1 were added on coated plate for 48 h, and CCR7 expression at the surface of the macrophages was measured by flow cytometry. […]
Molecule,binding activity to antigen-specific peptides (C7 peptide) [1],mortality of PMN (percentage of dead PMN) [2],percentage of aggregate [3],ROS production by PMN [4],"percentage of dead cells ([2]; at 48 hours, compared with IgG1 control)","caspase-3 cleavage ([5]; 4 h, 6 h, 11 h)",caspase-3 activity [5],expression of CCR7 at the surface of pro-inflammatory macrophages (M1) [6]
B1,even better than the germline antibody HALA and the wild type antibody 2G1,accelerate the death of PMN,did not change,,,,,
B2,,,,increase the ROS production,similar,increases caspase-3 cleavage,higher effect on caspase 3 activity as compared to the 2G1 antibody,
B3,high binding activity,accelerate the death of PMN,did not change,,,,,able to decrease expression of CCR7
